Experimental findings from publication PMC4197010 (Journal of controlled release : official journal of the …, 2014) are described below.

Assay [1] addresses T1, chimera leptin receptor (ObR-Fc) (UniProt P48356 22-839).
T1 sequence (looked up): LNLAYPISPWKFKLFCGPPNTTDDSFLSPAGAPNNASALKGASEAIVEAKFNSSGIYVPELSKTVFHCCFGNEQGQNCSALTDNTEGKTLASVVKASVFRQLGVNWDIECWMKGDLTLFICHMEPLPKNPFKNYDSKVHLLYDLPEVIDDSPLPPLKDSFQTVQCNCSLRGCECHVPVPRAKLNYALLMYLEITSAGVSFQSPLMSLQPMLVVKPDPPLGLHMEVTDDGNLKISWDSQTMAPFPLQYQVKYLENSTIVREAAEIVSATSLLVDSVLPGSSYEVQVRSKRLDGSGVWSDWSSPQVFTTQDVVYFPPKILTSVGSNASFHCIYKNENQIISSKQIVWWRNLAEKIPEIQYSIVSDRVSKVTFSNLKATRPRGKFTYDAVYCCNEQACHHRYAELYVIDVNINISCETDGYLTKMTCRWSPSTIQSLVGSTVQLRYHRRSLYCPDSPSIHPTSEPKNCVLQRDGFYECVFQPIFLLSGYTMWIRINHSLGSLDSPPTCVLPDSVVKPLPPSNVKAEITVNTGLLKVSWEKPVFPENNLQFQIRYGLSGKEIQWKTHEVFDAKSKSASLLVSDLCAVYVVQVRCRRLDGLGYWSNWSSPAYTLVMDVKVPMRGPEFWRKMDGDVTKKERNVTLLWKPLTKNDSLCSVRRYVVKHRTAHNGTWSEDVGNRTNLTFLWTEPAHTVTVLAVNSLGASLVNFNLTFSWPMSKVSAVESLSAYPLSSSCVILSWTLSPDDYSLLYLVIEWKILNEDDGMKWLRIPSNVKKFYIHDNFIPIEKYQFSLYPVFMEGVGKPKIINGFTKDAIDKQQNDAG
The experiment in a line: SPR. For orientation: Surface plasmon resonance follows binding to a sensor surface in real time, without labels.

In assay [2] the target is T1, chimera leptin receptor (ObR-Fc). The experiment in a line: SPR. This is another data set of the same source.

As a reminder, the Kd is a measure of binding affinity in units of concentration. Higher therefore signals lower affinity.

Like-named read-outs stand apart in the source and are kept apart here.

B1: Mouse recombinant leptin (ligand, UniProt P41160 22-167, looked up)
chain: VPIQKVQDDTKTLIKTIVTRINDISHTQSVSAKQRVTGLDFIPGLHPILSLSKMDQTLAVYQQVLTSLPSQNVLQIANDLENLRDLLHLLAFSKSCSLPQTSGLQKPESLDGVLEASLYSTEVVALSRLQGSLQDILQQLDVSPEC
For the molecule B1, the values for the dissociation constant Kd in assay [1] and in assay [2] were 0.337 nM and 0.1 nM, respectively.
